{"source": "paper PMC5925078", "key": {"[1]": {"biological_target": "membrane TNF (UniProt P01375)", "test": "cellular binding study with GpL (luciferase) fusion protein; reciprocal competition; memTNF-expressing HEK293 transfectants incubated 90 min with 100 ng/ml TNFR1ed-GpL or TNFR2ed-GpL, alone or mixed with 2,000 ng/ml sTNF or 2,000 ng/ml PGRNAdi; EV transfectants as non-specific binding"}, "[2]": {"biological_target": "TNFR2 ECD (Homo sapiens) (UniProt P20333)", "test": "SPR", "settings": "cited from earlier work"}, "[3]": {"biological_target": "TNFR1 ECD (Homo sapiens) (UniProt P19438)", "test": "SPR", "settings": "cited from earlier work"}}, "data": [{"substance": "TNFR1ed-GpL (from UniProt P19438 30-211) (receptor)", "values": [{"measurement": "specific binding, fold over background (the pair that is blocked)", "setting": "[1]", "value": "> 2000", "unit": "fold"}]}, {"substance": "Progranulin (from UniProt P28799)", "values": [{"measurement": "Kd", "setting": "[2]", "value": 1.52, "unit": "nM"}, {"measurement": "Kd", "setting": "[3]", "value": 1.77, "unit": "nM"}]}, {"substance": "TNFR2ed-GpL (from UniProt P20333 23-257) (receptor)", "values": [{"measurement": "specific binding, fold over background (the pair that is blocked)", "setting": "[1]", "value": "> 200", "unit": "fold"}]}]}
